Where a chain is given by its changes, count along the chain named. Names and notes keep the numbering of the source.
Key:
kinetochore = settings: cited from earlier work; for kinetochore targeting of F629A / R630A mutants, in words: ref Ji et al, 2017b
Text: Formation of the Bub1‐Mad1 complex at kinetochores is dependent on phosphorylation of Bub1, a targeting mechanism conserved from yeast to humans (Heinrich et al, [2014]; London & Biggins, [2014a]; Silió et al, [2015]). In S. cerevisiae, phosphorylation of Bub1 at Thr453 and Thr455 by Mps1 promotes an interaction with Mad1^CTD, with pThr455 alone being sufficient for this interaction (London & Biggins, [2014a]; Ji et al, [2017b]). […] Phe629 is a buried hydrophobic residue which contacts Phe629 of the opposite subunit and therefore contributes to the hydrophobic dimerization interface of Mad1^CTD. Phe629 also contributes to the hydrophobic interface of the Bub1^CD1‐Mad1^CTD complex by stacking with Bub1 Phe475 (Fig 3B). […] However, we suspect this could be linked to disruption of the Mad1 conformation sinc ...

[1] = Aggregation of Mad1^CTD mutants; format: physicochemical; settings: purified Mad1^CTD mutant
Text: The coding region of Mad1^597–719 was cloned by USER® (NEB) into a modified pRSFDuet‐1 vector (71341‐3, Sigma‐Aldrich) with an N‐terminal double Strep His6‐tag, followed by a tobacco etch virus (TEV) protease cleavage site (Demple & Linn, [1982]; Bitinaite et al, [1992]). Mad1 mutants were generated using the QuikChange™ Lightning Site‐Directed Mutagenesis Kit (Agilent), developed by Stratagene Inc. (La Jolla, CA) (Nøhr & Kristiansen, [2003]). Mad1 constructs were transformed into Rosetta™ 2 (DE3) Singles™ Competent Cells (71400, Novagen) for expression. Expression was induced with 0.5 mM IPTG and grown overnight at 18°C. Cells were lysed in 25 mM HEPES pH 8.1, 250 mM NaCl, 2 mM DTT, 5% glycerol, 2 mM EDTA supplemented with lysozyme, and Complete™ EDTA‐free protease inhibitors (Roche). Proteins were purified over a Strep‐Tactin Superflow Plus column (QIAGEN) and cleaved with TEV protease overnight at 4°C. […]
Size exclusion chromatography coupled with multi‐angle static light scattering (SEC‐MALS) was performed using an Agilent 1200 series LC system with an online Dawn Helios ii system (Wyatt) equipped with a QELS+ module (Wyatt) and an Optilab rEX differential refractive index detector (Wyatt). […] The molecular masses were analysed with ASTRA 7.3.0.11 (Wyatt). […]

B1: F629A: Mad1 F629A mutant (protein, UniProt Q9Y6D9 1-718, looked up, variant F629A)
Mitotic spindle assembly …: MEDLGENTMVLSTLRSLNNFISQRVEGGSGLDISTSAPGSLQMQYQQSMQLEERAEQIRSKSHLIQVEREKMQMELSHKRARVELERAASTSARNYEREVDRNQELLTRIRQLQEREAGAEEKMQEQLERNRQCQQNLDAASKRLREKEDSLAQAGETINALKGRISELQWSVMDQEMRVKRLESEKQELQEQLDLQHKKCQEANQKIQELQASQEARADHEQQIKDLEQKLSLQEQDAAIVKNMKSELVRLPRLERELKQLREESAHLREMRETNGLLQEELEGLQRKLGRQEKMQETLVGLELENERLLAKLQSWERLDQTMGLSIRTPEDLSRFVVELQQRELALKDKNSAVTSSARGLEKARQQLQEELRQVSGQLLEERKKRETHEALARRLQKRVLLLTKERDGMRAILGSYDSELTPAEYSPQLTRRMREAEDMVQKVHSHSAEMEAQLSQALEELGGQKQRADMLEMELKMLKSQSSSAEQSFLFSREEADTLRLKVEELEGERSRLEEEKRMLEAQLERRALQGDYDQSRTKVLHMSLNPTSVARQRLREDHSQLQAECERLRGLLRAMERGGTVPADLEAAAASLPSSKEVAELKKQVESAELKNQRLKEVFQTKIQEARKACYTLTGYQIDITTENQYRLTSLYAEHPGDCLIFKATSPSGSKMQLLETEFSHTVGELIEVHLRRQDSIPAFLSSLTLELFSRQTVA
For B1, the “kinetochore targeting of F629A / R630A mutants, in words” value (kinetochore) is listed as “defective in kinetochore targeting” and the “aggregation, in words” value [1] is listed as “had a propensity to aggregate”.

B2: R630A: Mad1 R630A mutant (protein, UniProt Q9Y6D9 1-718, looked up, variant R630A)
Mitotic spindle assembly …: B1 Mitotic spindle assembly … with A629F, R630A
For B2, the “kinetochore targeting of F629A / R630A mutants, in words” value (kinetochore) is given as “defective in kinetochore targeting”.

B3: S459A: Bub1 S459A mutation (protein, UniProt O43683 1-1085, looked up, variant S459A)
Mitotic checkpoint …: MDTPENVLQMLEAHMQSYKGNDPLGEWERYIQWVEENFPENKEYLITLLEHLMKEFLDKKKYHNDPRFISYCLKFAEYNSDLHQFFEFLYNHGIGTLSSPLYIAWAGHLEAQGELQHASAVLQRGIQNQAEPREFLQQQYRLFQTRLTETHLPAQARTSEPLHNVQVLNQMITSKSNPGNNMACISKNQGSELSGVISSACDKESNMERRVITISKSEYSVHSSLASKVDVEQVVMYCKEKLIRGESEFSFEELRAQKYNQRRKHEQWVNEDRHYMKRKEANAFEEQLLKQKMDELHKKLHQVVETSHEDLPASQERSEVNPARMGPSVGSQQELRAPCLPVTYQQTPVNMEKNPREAPPVVPPLANAISAALVSPATSQSIAPPVPLKAQTVTDSMFAVASKDAGCVNKSTHEFKPQSGAEIKEGCETHKVANTSSFHTTPNTSLGMVQATPSKVQPAPTVHTKEALGFIMNMFQAPTLPDISDDKDEWQSLDQNEDAFEAQFQKNVRSSGAWGVNKIISSLSSAFHVFEDGNKENYGLPQPKNKPTGARTFGERSVSRLPSKPKEEVPHAEEFLDDSTVWGIRCNKTLAPSPKSPGDFTSAAQLASTPFHKLPVESVHILEDKENVVAKQCTQATLDSCEENMVVPSRDGKFSPIQEKSPKQALSSHMYSASLLRLSQPAAGGVLTCEAELGVEACRLTDTDAAIAEDPPDAIAGLQAEWMQMSSLGTVDAPNFIVGNPWDDKLIFKLLSGLSKPVSSYPNTFEWQCKLPAIKPKTEFQLGSKLVYVHHLLGEGAFAQVYEATQGDLNDAKNKQKFVLKVQKPANPWEFYIGTQLMERLKPSMQHMFMKFYSAHLFQNGSVLVGELYSYGTLLNAINLYKNTPEKVMPQGLVISFAMRMLYMIEQVHDCEIIHGDIKPDNFILGNGFLEQDDEDDLSAGLALIDLGQSIDMKLFPKGTIFTAKCETSGFQCVEMLSNKPWNYQIDYFGVAATVYCMLFGTYMKVKNEGGECKPEGLFRRLPHLDMWNEFFHVMLNIPDCHHLPSLDLLRQKLKKVFQQHYTNKIRALRNRLIVLLLECKRSRK
In the case of B3, the “Mad1 kinetochore recruitment by Bub1 S459A, in words” value (kinetochore; ref Zhang et al, 2017) is listed as “inactivates Bub1‐mediated Mad1 kinetochore recruitment”.

— article PMC8391104, “Molecular mechanism of Mad1 kinetochore targeting by phosphorylated Bub1” (EMBO Reports, 2021)
